From paper PMC8406323, “Cellular 5′-3′ mRNA Exoribonuclease XRN1 Inhibits Interferon Beta Activation and Facilitates Influenza A Virus Replication” (mBio, 2021)

Biological target: T1, GST-XRN1-C-terminal region (aa 1174–1706) fusion protein (human, UniProt Q8IZH2 1174-1706)
T1 construct: XRN1, human, C-terminal region aa 1174-1706 (vector pGEX-6P); Held on glutathione beads in the pull-down; also called GST-tagged-XRN1 (aa 1174–1706); source: E. coli BL21(DE3), purified (glutathione Sepharose 4B)
T1 sequence: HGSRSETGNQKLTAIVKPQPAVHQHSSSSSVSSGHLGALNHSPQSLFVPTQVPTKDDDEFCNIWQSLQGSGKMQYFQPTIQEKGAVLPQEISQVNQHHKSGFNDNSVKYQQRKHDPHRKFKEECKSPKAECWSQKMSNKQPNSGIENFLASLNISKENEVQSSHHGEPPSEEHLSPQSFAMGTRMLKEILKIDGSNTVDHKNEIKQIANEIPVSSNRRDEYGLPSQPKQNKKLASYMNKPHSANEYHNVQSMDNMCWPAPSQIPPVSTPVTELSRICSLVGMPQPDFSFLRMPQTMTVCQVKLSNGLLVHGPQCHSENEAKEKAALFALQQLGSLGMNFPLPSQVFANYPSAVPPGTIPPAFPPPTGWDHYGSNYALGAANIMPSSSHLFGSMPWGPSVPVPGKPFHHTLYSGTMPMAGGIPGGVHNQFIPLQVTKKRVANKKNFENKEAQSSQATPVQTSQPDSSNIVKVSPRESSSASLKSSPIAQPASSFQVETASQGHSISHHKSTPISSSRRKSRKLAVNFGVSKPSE
Experiment: pull-down
Conditions: both partners purified

B1: His-NS1 from PR8 (natural protein)
chain: MDPNTVSSFQVDCFLWHVRKRVADQELGDAPFLDRLRRDQKSLRGRGSTLGLDIETATRAGKQIVERILKEESDEALKMTMASVPASRYLTDMTLEEMSRDWSMLIPKQKVAGPLCIRMDQAIMDKNIILKANFSVIFDRLETLILLRAFTEEGAIVGEISPLPSLPGHTAEDVKNAVGVLIGGLEWNDNTVRVSETLQRFAWRSSNENGRPPLTPKQKREMAGTIRSEV
notes: also called His-tagged NS1; recombinant NS1
  binding result: binds
